From patent publication US20140178333A1 come the findings set out here.

In this assay the target is IL-28 receptor (IL-28 receptor alpha subunit with endogenous CRF2-4) on transfected 293 HEK cells (human). The experiment in a line: cell-based or functional assay.
Chain of IL-28 receptor (IL-28 receptor alpha subunit with endogenous CRF2-4) on transfected 293 HEK cells (human) (Q8IU57 21-520): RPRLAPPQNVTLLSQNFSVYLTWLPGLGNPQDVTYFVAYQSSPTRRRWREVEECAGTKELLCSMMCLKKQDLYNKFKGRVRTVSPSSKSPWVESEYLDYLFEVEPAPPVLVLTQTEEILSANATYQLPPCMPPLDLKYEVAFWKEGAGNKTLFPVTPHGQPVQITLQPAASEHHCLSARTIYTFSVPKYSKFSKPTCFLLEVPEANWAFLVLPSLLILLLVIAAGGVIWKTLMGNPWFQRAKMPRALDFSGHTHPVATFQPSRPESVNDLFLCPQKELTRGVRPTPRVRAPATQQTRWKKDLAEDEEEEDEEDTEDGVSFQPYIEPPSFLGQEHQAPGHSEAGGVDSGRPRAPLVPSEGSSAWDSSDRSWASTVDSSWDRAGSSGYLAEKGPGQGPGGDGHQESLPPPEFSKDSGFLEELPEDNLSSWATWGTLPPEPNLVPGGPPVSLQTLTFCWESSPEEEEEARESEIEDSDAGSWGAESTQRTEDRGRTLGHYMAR

“IL-28B (SEQ ID NO:6) (from UniProt Q8IZI9 22-196) (ligand)” gave an ISRE-luciferase fold induction over medium alone, 293 HEK cells transfected with ISRE-Luc. and IL-28R; ligand 125 ng/ml (fold induction) of 104.

The substance “Zcyto10 (from UniProt Q9NYY1 25-176) (ligand)” registered an ISRE-luciferase fold induction over medium alone, 293 HEK cells transfected with ISRE-Luc. and IL-28R; ligand 125 ng/ml (fold induction) of 1.

As to “HuIL10 (from UniProt P22301 19-178) (ligand)”, the ISRE-luciferase fold induction over medium alone, 293 HEK cells transfected with ISRE-Luc. and IL-28R; ligand 100 ng/ml (fold induction) is 0.5.
